The supplement of paper PMC10266784

B1: library; numbered along this chain (parent)
chain: MAAAAAAAAEQQSSNGPVKKSMREKAVERRSVNKEHNSNFKAGYIPIDEDRLHKTGLRGRKGNLAICVIILLFILAVINLIITLVIWAVIRIGPNGCDSMEFHESGLLRFKQVSDMGVIHPLYKSTVGGRRNENLVITGNNQPIVFQQGTTKLSVENNKTSITSDIGMQFFDPRTQNILFSTDYETHEFHLPSGVKSLNVQKASTERITSNATSDLNIKVDGRAIVRGNEGVFIMGKTIEFHMGGNMELKAENSIILNGSVMVSTTRLPSSSSGDQLGSGDWVRYKLCMCADGTLFKVQVTSQNMGCQISDNPCGNTH

Variants of: B1
Test: SGCB cell-surface expression functional score (HA stain, bin4 vs bin1, normalised to synonymous) (log10 ratio); higher = more cell-surface SGCB (functional)
Procedure: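 Deep mutational scan of full-length human SGCB (YFP-SGCB-HA, NNN codon sublibraries A-F) delivered by lentivirus at low MOI into ADG-HEK293 cells stably expressing SGCA, SGCD and SGCG. YFP-positive cells were stained for surface HA on unpermeabilized cells and FACS-sorted into bins. The functional score is log10(frequency in high bin 4 / frequency in low bin 1), normalised per chunk so that synonymous variants have mean 0 and SD 0.5. Scores are the median over codons and over duplicate biological replicates; scores below -0.5 are called non-functional. Scale: negative means deleterious.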

Compared with GAAAAAAAAEQQSSNGPVKKSMREKAVERRSVNKEHNSNFKAGYIPIDEDRLHKTGLRGRKGNLAICVIILLFILAVINLIITLVIWAVIRIGPNGCDSMEFHESGLLRFKQVSDMGVIHPLYKSTVGGRRNENLVITGNNQPIVFQQGTTKLSVENNKTSITSDIGMQFFDPRTQNILFSTDYETHEFHLPSGVKSLNVQKASTERITSNATSDLNIKVDGRAIVRGNEGVFIMGKTIEFHMGGNMELKAENSIILNGSVMVSTTRLPSSSSGDQLGSGDWVRYKLCMCADGTLFKVQVTSQNMGCQISDNPCGNTH [M1G], FAAAAAAAAEQQSSNGPVKKSMREKAVERRSVNKEHNSNFKAGYIPIDEDRLHKTGLRGRKGNLAICVIILLFILAVINLIITLVIWAVIRIGPNGCDSMEFHESGLLRFKQVSDMGVIHPLYKSTVGGRRNENLVITGNNQPIVFQQGTTKLSVENNKTSITSDIGMQFFDPRTQNILFSTDYETHEFHLPSGVKSLNVQKASTERITSNATSDLNIKVDGRAIVRGNEGVFIMGKTIEFHMGGNMELKAENSIILNGSVMVSTTRLPSSSSGDQLGSGDWVRYKLCMCADGTLFKVQVTSQNMGCQISDNPCGNTH [M1F] is lower in “SGCB cell-surface expression functional score (log10)” value: 0.1 for the first, -0.28 for the second.

VAAAAAAAAEQQSSNGPVKKSMREKAVERRSVNKEHNSNFKAGYIPIDEDRLHKTGLRGRKGNLAICVIILLFILAVINLIITLVIWAVIRIGPNGCDSMEFHESGLLRFKQVSDMGVIHPLYKSTVGGRRNENLVITGNNQPIVFQQGTTKLSVENNKTSITSDIGMQFFDPRTQNILFSTDYETHEFHLPSGVKSLNVQKASTERITSNATSDLNIKVDGRAIVRGNEGVFIMGKTIEFHMGGNMELKAENSIILNGSVMVSTTRLPSSSSGDQLGSGDWVRYKLCMCADGTLFKVQVTSQNMGCQISDNPCGNTH [M1V] and KAAAAAAAAEQQSSNGPVKKSMREKAVERRSVNKEHNSNFKAGYIPIDEDRLHKTGLRGRKGNLAICVIILLFILAVINLIITLVIWAVIRIGPNGCDSMEFHESGLLRFKQVSDMGVIHPLYKSTVGGRRNENLVITGNNQPIVFQQGTTKLSVENNKTSITSDIGMQFFDPRTQNILFSTDYETHEFHLPSGVKSLNVQKASTERITSNATSDLNIKVDGRAIVRGNEGVFIMGKTIEFHMGGNMELKAENSIILNGSVMVSTTRLPSSSSGDQLGSGDWVRYKLCMCADGTLFKVQVTSQNMGCQISDNPCGNTH [M1K] are within 0.2 log units of each other in “SGCB cell-surface expression functional score (log10)” value: 0.28 for the first, 0.14 for the second.

Compared with EAAAAAAAAEQQSSNGPVKKSMREKAVERRSVNKEHNSNFKAGYIPIDEDRLHKTGLRGRKGNLAICVIILLFILAVINLIITLVIWAVIRIGPNGCDSMEFHESGLLRFKQVSDMGVIHPLYKSTVGGRRNENLVITGNNQPIVFQQGTTKLSVENNKTSITSDIGMQFFDPRTQNILFSTDYETHEFHLPSGVKSLNVQKASTERITSNATSDLNIKVDGRAIVRGNEGVFIMGKTIEFHMGGNMELKAENSIILNGSVMVSTTRLPSSSSGDQLGSGDWVRYKLCMCADGTLFKVQVTSQNMGCQISDNPCGNTH [M1E], IAAAAAAAAEQQSSNGPVKKSMREKAVERRSVNKEHNSNFKAGYIPIDEDRLHKTGLRGRKGNLAICVIILLFILAVINLIITLVIWAVIRIGPNGCDSMEFHESGLLRFKQVSDMGVIHPLYKSTVGGRRNENLVITGNNQPIVFQQGTTKLSVENNKTSITSDIGMQFFDPRTQNILFSTDYETHEFHLPSGVKSLNVQKASTERITSNATSDLNIKVDGRAIVRGNEGVFIMGKTIEFHMGGNMELKAENSIILNGSVMVSTTRLPSSSSGDQLGSGDWVRYKLCMCADGTLFKVQVTSQNMGCQISDNPCGNTH [M1I] is lower in “SGCB cell-surface expression functional score (log10)” value: -0.03 for the first, -1.06 for the second.

YAAAAAAAAEQQSSNGPVKKSMREKAVERRSVNKEHNSNFKAGYIPIDEDRLHKTGLRGRKGNLAICVIILLFILAVINLIITLVIWAVIRIGPNGCDSMEFHESGLLRFKQVSDMGVIHPLYKSTVGGRRNENLVITGNNQPIVFQQGTTKLSVENNKTSITSDIGMQFFDPRTQNILFSTDYETHEFHLPSGVKSLNVQKASTERITSNATSDLNIKVDGRAIVRGNEGVFIMGKTIEFHMGGNMELKAENSIILNGSVMVSTTRLPSSSSGDQLGSGDWVRYKLCMCADGTLFKVQVTSQNMGCQISDNPCGNTH [M1Y] and WAAAAAAAAEQQSSNGPVKKSMREKAVERRSVNKEHNSNFKAGYIPIDEDRLHKTGLRGRKGNLAICVIILLFILAVINLIITLVIWAVIRIGPNGCDSMEFHESGLLRFKQVSDMGVIHPLYKSTVGGRRNENLVITGNNQPIVFQQGTTKLSVENNKTSITSDIGMQFFDPRTQNILFSTDYETHEFHLPSGVKSLNVQKASTERITSNATSDLNIKVDGRAIVRGNEGVFIMGKTIEFHMGGNMELKAENSIILNGSVMVSTTRLPSSSSGDQLGSGDWVRYKLCMCADGTLFKVQVTSQNMGCQISDNPCGNTH [M1W] are within 0.2 log units of each other in “SGCB cell-surface expression functional score (log10)” value: -0.02 for the first, -0.07 for the second.

LAAAAAAAAEQQSSNGPVKKSMREKAVERRSVNKEHNSNFKAGYIPIDEDRLHKTGLRGRKGNLAICVIILLFILAVINLIITLVIWAVIRIGPNGCDSMEFHESGLLRFKQVSDMGVIHPLYKSTVGGRRNENLVITGNNQPIVFQQGTTKLSVENNKTSITSDIGMQFFDPRTQNILFSTDYETHEFHLPSGVKSLNVQKASTERITSNATSDLNIKVDGRAIVRGNEGVFIMGKTIEFHMGGNMELKAENSIILNGSVMVSTTRLPSSSSGDQLGSGDWVRYKLCMCADGTLFKVQVTSQNMGCQISDNPCGNTH [M1L] and TAAAAAAAAEQQSSNGPVKKSMREKAVERRSVNKEHNSNFKAGYIPIDEDRLHKTGLRGRKGNLAICVIILLFILAVINLIITLVIWAVIRIGPNGCDSMEFHESGLLRFKQVSDMGVIHPLYKSTVGGRRNENLVITGNNQPIVFQQGTTKLSVENNKTSITSDIGMQFFDPRTQNILFSTDYETHEFHLPSGVKSLNVQKASTERITSNATSDLNIKVDGRAIVRGNEGVFIMGKTIEFHMGGNMELKAENSIILNGSVMVSTTRLPSSSSGDQLGSGDWVRYKLCMCADGTLFKVQVTSQNMGCQISDNPCGNTH [M1T] are within 0.2 log units of each other in “SGCB cell-surface expression functional score (log10)” value: -1.26 for the first, -1.08 for the second.

AAAAAAAAAEQQSSNGPVKKSMREKAVERRSVNKEHNSNFKAGYIPIDEDRLHKTGLRGRKGNLAICVIILLFILAVINLIITLVIWAVIRIGPNGCDSMEFHESGLLRFKQVSDMGVIHPLYKSTVGGRRNENLVITGNNQPIVFQQGTTKLSVENNKTSITSDIGMQFFDPRTQNILFSTDYETHEFHLPSGVKSLNVQKASTERITSNATSDLNIKVDGRAIVRGNEGVFIMGKTIEFHMGGNMELKAENSIILNGSVMVSTTRLPSSSSGDQLGSGDWVRYKLCMCADGTLFKVQVTSQNMGCQISDNPCGNTH [M1A] and PAAAAAAAAEQQSSNGPVKKSMREKAVERRSVNKEHNSNFKAGYIPIDEDRLHKTGLRGRKGNLAICVIILLFILAVINLIITLVIWAVIRIGPNGCDSMEFHESGLLRFKQVSDMGVIHPLYKSTVGGRRNENLVITGNNQPIVFQQGTTKLSVENNKTSITSDIGMQFFDPRTQNILFSTDYETHEFHLPSGVKSLNVQKASTERITSNATSDLNIKVDGRAIVRGNEGVFIMGKTIEFHMGGNMELKAENSIILNGSVMVSTTRLPSSSSGDQLGSGDWVRYKLCMCADGTLFKVQVTSQNMGCQISDNPCGNTH [M1P] are within 0.2 log units of each other in “SGCB cell-surface expression functional score (log10)” value: 0.12 for the first, 0.21 for the second.

Compared with RAAAAAAAAEQQSSNGPVKKSMREKAVERRSVNKEHNSNFKAGYIPIDEDRLHKTGLRGRKGNLAICVIILLFILAVINLIITLVIWAVIRIGPNGCDSMEFHESGLLRFKQVSDMGVIHPLYKSTVGGRRNENLVITGNNQPIVFQQGTTKLSVENNKTSITSDIGMQFFDPRTQNILFSTDYETHEFHLPSGVKSLNVQKASTERITSNATSDLNIKVDGRAIVRGNEGVFIMGKTIEFHMGGNMELKAENSIILNGSVMVSTTRLPSSSSGDQLGSGDWVRYKLCMCADGTLFKVQVTSQNMGCQISDNPCGNTH [M1R], DAAAAAAAAEQQSSNGPVKKSMREKAVERRSVNKEHNSNFKAGYIPIDEDRLHKTGLRGRKGNLAICVIILLFILAVINLIITLVIWAVIRIGPNGCDSMEFHESGLLRFKQVSDMGVIHPLYKSTVGGRRNENLVITGNNQPIVFQQGTTKLSVENNKTSITSDIGMQFFDPRTQNILFSTDYETHEFHLPSGVKSLNVQKASTERITSNATSDLNIKVDGRAIVRGNEGVFIMGKTIEFHMGGNMELKAENSIILNGSVMVSTTRLPSSSSGDQLGSGDWVRYKLCMCADGTLFKVQVTSQNMGCQISDNPCGNTH [M1D] is higher in “SGCB cell-surface expression functional score (log10)” value: -0.06 for the first, 0.69 for the second.

Compared with SAAAAAAAAEQQSSNGPVKKSMREKAVERRSVNKEHNSNFKAGYIPIDEDRLHKTGLRGRKGNLAICVIILLFILAVINLIITLVIWAVIRIGPNGCDSMEFHESGLLRFKQVSDMGVIHPLYKSTVGGRRNENLVITGNNQPIVFQQGTTKLSVENNKTSITSDIGMQFFDPRTQNILFSTDYETHEFHLPSGVKSLNVQKASTERITSNATSDLNIKVDGRAIVRGNEGVFIMGKTIEFHMGGNMELKAENSIILNGSVMVSTTRLPSSSSGDQLGSGDWVRYKLCMCADGTLFKVQVTSQNMGCQISDNPCGNTH [M1S], QAAAAAAAAEQQSSNGPVKKSMREKAVERRSVNKEHNSNFKAGYIPIDEDRLHKTGLRGRKGNLAICVIILLFILAVINLIITLVIWAVIRIGPNGCDSMEFHESGLLRFKQVSDMGVIHPLYKSTVGGRRNENLVITGNNQPIVFQQGTTKLSVENNKTSITSDIGMQFFDPRTQNILFSTDYETHEFHLPSGVKSLNVQKASTERITSNATSDLNIKVDGRAIVRGNEGVFIMGKTIEFHMGGNMELKAENSIILNGSVMVSTTRLPSSSSGDQLGSGDWVRYKLCMCADGTLFKVQVTSQNMGCQISDNPCGNTH [M1Q] is higher in “SGCB cell-surface expression functional score (log10)” value: 0.07 for the first, 0.35 for the second.

Going from HAAAAAAAAEQQSSNGPVKKSMREKAVERRSVNKEHNSNFKAGYIPIDEDRLHKTGLRGRKGNLAICVIILLFILAVINLIITLVIWAVIRIGPNGCDSMEFHESGLLRFKQVSDMGVIHPLYKSTVGGRRNENLVITGNNQPIVFQQGTTKLSVENNKTSITSDIGMQFFDPRTQNILFSTDYETHEFHLPSGVKSLNVQKASTERITSNATSDLNIKVDGRAIVRGNEGVFIMGKTIEFHMGGNMELKAENSIILNGSVMVSTTRLPSSSSGDQLGSGDWVRYKLCMCADGTLFKVQVTSQNMGCQISDNPCGNTH [M1H] to CAAAAAAAAEQQSSNGPVKKSMREKAVERRSVNKEHNSNFKAGYIPIDEDRLHKTGLRGRKGNLAICVIILLFILAVINLIITLVIWAVIRIGPNGCDSMEFHESGLLRFKQVSDMGVIHPLYKSTVGGRRNENLVITGNNQPIVFQQGTTKLSVENNKTSITSDIGMQFFDPRTQNILFSTDYETHEFHLPSGVKSLNVQKASTERITSNATSDLNIKVDGRAIVRGNEGVFIMGKTIEFHMGGNMELKAENSIILNGSVMVSTTRLPSSSSGDQLGSGDWVRYKLCMCADGTLFKVQVTSQNMGCQISDNPCGNTH [M1C], the “SGCB cell-surface expression functional score (log10)” value rises from 0.01 to 0.25.

For NAAAAAAAAEQQSSNGPVKKSMREKAVERRSVNKEHNSNFKAGYIPIDEDRLHKTGLRGRKGNLAICVIILLFILAVINLIITLVIWAVIRIGPNGCDSMEFHESGLLRFKQVSDMGVIHPLYKSTVGGRRNENLVITGNNQPIVFQQGTTKLSVENNKTSITSDIGMQFFDPRTQNILFSTDYETHEFHLPSGVKSLNVQKASTERITSNATSDLNIKVDGRAIVRGNEGVFIMGKTIEFHMGGNMELKAENSIILNGSVMVSTTRLPSSSSGDQLGSGDWVRYKLCMCADGTLFKVQVTSQNMGCQISDNPCGNTH [M1N], the “SGCB cell-surface expression functional score (log10)” value was 0.37.
